Measurements taken from publication PMC5759053.

Target: Positive controls (Ci-M1; TRPV4-Ci, each with Ce-M1)
Assay: FRET or BRET

Sequence of cerulean-AQP4 M1 (P55088 whole entry): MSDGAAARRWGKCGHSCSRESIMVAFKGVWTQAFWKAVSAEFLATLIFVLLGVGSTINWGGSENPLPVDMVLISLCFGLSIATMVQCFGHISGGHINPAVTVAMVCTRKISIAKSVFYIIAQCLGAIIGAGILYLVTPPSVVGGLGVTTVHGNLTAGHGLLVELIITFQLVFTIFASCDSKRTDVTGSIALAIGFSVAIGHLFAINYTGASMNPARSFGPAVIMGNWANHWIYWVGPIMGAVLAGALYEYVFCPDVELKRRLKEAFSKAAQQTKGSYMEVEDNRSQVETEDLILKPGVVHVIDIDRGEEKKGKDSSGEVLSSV

cerulean-AQP4 M1 (from UniProt P55088-1 1-323) (natural protein)
FRET efficiency: 8 to 10%
